The source of these data is US20230086603A1 (BOLT BIOTHERAPEUTICS, published 2023).

B1: 14 (antibody, V domains shown)
VH: QVQLVQSGAEVKKPGASVKVSCKASGYRFTTYYVHWVRQAPGQGLEWMGWMNPNTVYTGSAQKFQGRVTMTRDTSTSTVYMELSSLRSEDTAVYYCAREGWGSSGYFDYWGQGTLVTVSS
VL: DIQMTQSPSSLSASVGDRVTITCQASQDISNYLNWYQQKPGKAPKLLIYAASSLQSGVPSRFSGSGSGTDFTLTISSLQPEDFATYYCQQSFTNPVTFGGGTKVEIK
B2: 22 (antibody, V domains shown)
VH: QVQLVQSGAEVKKPGASVKVSCKASGYTFTGYTLHWVRQAPGQGLEWMGWIDPNSGVTSSAQKFQGRVTMTRDTSTSTVYMELSSLRSEDTAVYYCARESEVMMAYFQHWGQGTLVTVSS
VL: DIQMTQSPSSLSASVGDRVTITCQASQDISSYLNWYQQKPGKAPKLLIYAASSLQTGVPSRFSGSGSGTDFTLTISSLQPEDFATYYCQQSYSTPYTFGQGTKLEIK
B3: 23 (antibody, V domains shown)
VH: QVQLVQSGAEVKKPGASVKVSCKASGYTFTGYYMHWVRQAPGQGLEWMGWISPNSGVTDFTQKFQGRVTMTRDTSTSTVYMELSSLRSEDTAVYYCARESWSGEFDYWGQGTLVTVSS
VL: DIQMTQSPSSLSASVGDRVTITCRASQSITTYLNWYQQKPGKAPKLLIYAASSLQGGVPSRFSGSGSGTDFTLTISSLQPEDFATYYCQQSYSTPYTFGQGTKVEIK
B4: 19 (antibody, V domains shown)
VH: QVQLVQSGAEVKKPGASVKVSCKASGYTFTSHYMHWVRQAPGQGLEWMGWMNPNSGNTGYAQKFQGRVTMTRDTSTSTVYMELSSLRSEDTAVYYCARERFLGGMDVWGQGTTVTVSS
VL: DIQMTQSPSSLSASVGDRVTITCRASQSITGWLAWYQQKPGKAPKLLIYAASSLQSGVPSRFSGSGSGTDFTLTISSLQPEDFATYYCQQSYSTPYTFGQGTKVEIK
B5: 25 (antibody, V domains shown)
VH: QVQLVQSGAEVKKPGASVKVSCKASGYTFTGYYMHWVRQAPGQGLEWMGWMNPNSDIAGYAQKFQGRVTMTRDTSTSTVYMELSSLRSEDTAVYYCARDAWELLAFDIWGQGTLVTVSS
VL: DIQMTQSPSSLSASVGDRVTITCRASQSVSTWLAWYQQKPGKAPKLLIYAASNLESGVPSRFSGSGSGTDFTLTISSLQPEDFATYYCQQSYSTPYTFGQGTKLEIK
B6: 20 (antibody, V domains shown)
VH: QVQLVQSGAEVKKPGASVKVSCKASGYTFTDYYMHWVRQAPGQGLEWMGWMHPNSGHTGYAQKFQGRVTMTRDTSTSTVNMELSSLRSEDTAVYYCAREEWLGHFQHWGQGTLVTVSS
VL: DIQMTQSPSSLSASVGDRVTITCRASQSISSWLAWYQQKPGKAPKLLIYDATHLETGVPSRFSGSGSGTDFTLTISSLQPEDFATYYCQQSYSTPITFGQGTRLEIK
B7: 24 (antibody, V domains shown)
VH: QVQLVQSGAEVKKPGASVKVSCKASGDTFTNHYMHWVRQAPGQGLEWMGWMNPNSGHTGYAQRFQGRVTMTRDTSTSTVYMELSSLRSEDTAVYYCAREAVAGPMDVWGQGTTVTVSS
VL: not shown
B8: 28 (antibody, V domains shown)
VH: QVQLVQSGAEVKKPGASVKVSCKASGYTFTSYYMHWVRQAPGQGLEWMGWMNPNSGNTGYAQKFQGRVTMTRDTSTSTVYMELSSLRSEDTAVYYCARERFAGGMDAWGQGTTVTVSS
VL: EIVMTQSPATLSVSPGERATLSCRASQSLSSSSLAWYQQKPGQAPRLLIYGASTRATGIPARFSGSGSGTEFTLTISSLQSEDFAVYYCQQYGSSPFTFGPGTKVDIK
B9: 26 (antibody, V domains shown)
VH: QVQLAQSGAEVKKPGASVKVSCKASGYTFTNHYMHWVRQAPGQGLEWMGWMNPNSGNTGYAQKFQGRVTMTRDTSTSTVYMELSSLRSEDTAVYYCARDRWDGDYYSAWGQGTLVTVSS
VL: DIQMTQSPSSLSASVGDRVTITCRASQSISNWLAWYQQKPGKAPKLLIYDVSHLESGVPSRFSGSGSGTDFTLTISSLQPEDFATYYCQQSYSTPFTFGPGTKVDIK
B10: 11 (antibody, V domains shown)
VH: QVQLVQSGAEVKKPGASVKVSCKASGYTFTNYYIHWVRQAPGQGLEWLGWMNPNGDVAGYADSFQGRVTMTRDTSTSTVYMELSSLRSEDTAVYYCAIDSSGWMRNDAFDIWGQGTLVTVSS
VL: DIQMTQSPSSLSASVGDRVTITCRASQGISQYLAWYQQKPGKAPKLLIYGASNLHSGVPSRFSGSGSGTDFTLTISSLQPEDFATYYCQQTFITPLTFGGGTKVEIK
B11: 2 (antibody, V domains shown)
VH: QVQLVQSGAEVKKPGASVKVSCKASGYTFTSYYMHWVRQAPGQGLEWMGWMNPNSDIAGYAQKFQGRVTMTRDTSTSTVYMELSSLRSEDTAVYYCAIPSIVGAYDAFDIWGQGTLVTVSS
VL: DIQMTQSPSSLSASVGDRVTITCRASQSISSWLAWYQQKPGKAPKLLIYAASSLQSGVPSRFSGSGSGTDFTLTISSLQPEDFATYYCQQSYTTPITFGGGTKVEIK
B12: 17 (antibody, V domains shown)
VH: QVQLVQSGAEVKKPGASVKVSCKASGDTFTRHYVHWVRQAPGQGLEWMGWMSPSSGITGYAQKFQGRVTMTRDTSTSTVYMELSSLRSEDTAVYYCARVRWSSDAFDIWGQGTLVTVSS
VL: not shown
B13: 9 (antibody, V domains shown)
VH: QVQLVQSGAEVKKPGASVKVSCKASGHSFTHYYMHWVRQAPGQGLEWMGWMNPDSGSTGYAQKFQGRVTMTRDTSTSTVYMELSSLRSEDTAVYYCARALFPYPFYYYYMDVWGQGTLVTVSS
VL: DIQMTQSPSSLSASVGDRVTITCRASQGIRNDLGWYQQKPGKAPKLLIYSASNLQSGVPSRFSGSGSGTDFTLTISSLQPEDFATYYCQQANSFPFTFGGGTKVEIK
B14: 27 (antibody, V domains shown)
VH: QVQLVQSGAEVKKPGASVKVSCKASGYTFTNYYIHWVRQAPGQGLEWMGWMSPNGGNTGYAQKFQGRVTMTRDTSTSTVYMELSSLRSEDTAVYYCARESWELTGFDYWGQGTLVTVSS
VL: DIQMTQSPSSLSASVGDRVTITCQASQGISNYLAWYQQKPGKAPKLLIYDASSLQSGVPSRFSGSGSGTDFTLTISSLQPEDFATYYCQQSYSTPLTFGGGTKVEIK
B15: 13 (antibody, V domains shown)
VH: QVQLVQSGAEVKKPGASVKVSCKASGYPFTSYYMHWVRQAPGQGLEWMGWMNPNSDIAGYAQKFQGRVTMTRDTSTSTVYMELSSLRSEDTAVYYCAREGRHGEYLYWGQGTLVTVSS
VL: DIQMTQSPSSLSASVGDRVTITCRASQIISSYLNWYQQKPGKAPKLLIYAASSLQSGVPSRFSGSGSGTDFTLTISSLQPEDFATYYCQQGFSTPFTFGGGTKVEIK
B16: 16 (antibody, V domains shown)
VH: QVQLVQSGAEVKKPGSSVKVSCKASGGTFSSYAISWVRQAPGQGLEWMGGIIPIFGTANYAQKFQGRVTITADESTSTAYMELSSLRSEDTAVYYCARGGYSYGSFQHWGQGTLVTVSS
VL: DIQMTQSPSSLSASVGDRVTITCRASQGISNNLNWYQQKPGKAPKLLIYAATTLQSGVPSRFSGSGSGTDFTLTISSLQPEDFATYYCQQSYSTPYTFGGGTKVEIK
B17: 1 (antibody, V domains shown)
VH: QVQLVQSGAEVKKPGASVKVSCKASGGTFSSYAISWVRQAPGQGLEWMGVINPSAGSTDYAQKFQGRVTMTRDTSTSTVYMELSSLRSEDTAVYYCARDLYPYVVVVAAGSYGMDVWGQGTLVTVSS
VL: DIQMTQSPSSLSASVGDRVTITCRASQGIDSYLAWYQQKPGKAPKLLIYAASSLQSGVPSRFSGSGSGTDFTLTISSLQPEDFATYYCQQSYSTPITFGGGTKVEIK
B18: 18 (antibody, V domains shown)
VH: QVQLVQSGAEVKKPGASVKVSCKASGYTFTSYYMHWVRQAPGQGLEWVGWMTPSTGNAGYAQKFQGRVTMTRDTSTSTVYMELSSLRSEDTAVYYCAREEWLGHFQHWGQGTLVTVSS
VL: DIQMTQSPSSLSASVGDRVTITCRASQGISNGLSWYQQKPGKAPKLLIYAASTLQSGVPSRFSGSGSGTDFTLTISSLQPEDFATYYCQQSHSTPLTFGGGTKVEIK
B19: 36 (antibody, V domains shown)
VH: QVQLVQSGAEVKKPGSSVKVSCKASGGTFSTFGISWVRQAPGQGLEWMGGIIPIFGTANYAQKFQGRVTITADESTSTAYMELSSLRSEDTAVYYCARGGYSYGSFDYWGQGTLVTVSS
VL: DIQMTQSPSSLSASVGDRVTITCRASQGISNNLNWYQQKPGKAPKLLIYATSTLQSGVPSRFSGSGSGTDFTLTISSLQPEDFATYYCQQSYSTPYTFGQGTKVEIK
B20: 12 (antibody, V domains shown)
VH: QVQLVQSGAEVKKPGASVKVSCKASGGTFSNYMYHWVRQAPGQGLEWMGWISTYHGSTNYAQKFQGRVTMTRDTSTSTVYMELSSLRSEDTAVYYCARDARGYSGYDLWGQGTLVTVSS
VL: DIQMTQSPSSLSASVGDRVTITCRASQIIGNYLAWYQQKPGKAPKLLIYHASILETGVPSRFSGSGSGTDFTLTISSLQPEDFATYYCQQSYSTPTFGGGTKVEIK

T1 sequence (Q9NZQ7 19-290 limits assumed): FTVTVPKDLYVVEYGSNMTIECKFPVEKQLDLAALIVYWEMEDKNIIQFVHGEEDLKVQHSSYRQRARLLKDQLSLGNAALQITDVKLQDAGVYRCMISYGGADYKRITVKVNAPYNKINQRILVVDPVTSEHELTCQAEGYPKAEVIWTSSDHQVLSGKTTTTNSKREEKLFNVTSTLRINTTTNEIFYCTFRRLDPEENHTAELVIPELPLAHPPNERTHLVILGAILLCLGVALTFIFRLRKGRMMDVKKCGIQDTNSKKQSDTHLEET

The experiment has as its target T1, human PD-L1 (hPD-L1) (human, UniProt Q9NZQ7 19-290).
T1 construct: Endogenous hPD-L1 on JIMT1 (JIMT-1) cells; also called programmed death-ligand 1; CD274
In words: flow cytometry on JIMT-1 cells expressing endogenous human PD-L1; anti-human IgG Fc secondary; geometric MFI. As for the experimental part:
Binding of the binding agents of an embodiment of the invention to human PD-L1 (hPD-L1) on cell surfaces was assessed by incubating the binding agents with JIMT1 cells that express endogenous hPD-L1. Briefly, the binding agents were diluted serially in FACS buffer (PBS+1% FBS+5 mM EDTA, pH 7.4) at 4° C. Diluted binding agents were applied to JIMT1 cells (˜1×10⁵-2×10⁵ per well) and incubated at 4° C. […] After unbound secondary antibody was washed out, cells were resuspended in FACS buffer plus 2% formaldehyde and analyzed by flow cytometry. The intensity of fluorescence, expressed as geometric mean fluorescence intensity, was used to determine anti-PDL1 binding agent binding to hPD-L1 on cell surface.
(In general: A flow cytometer gives signals particle by particle.)
Turning to B1, the binding result is on record as “binds”.
The result for B2 reads “binds”; that for B3, “binds”; that for B4, “binds”.
The result for B5 reads “binds”; that for B6, “binds”; that for B7, “binds”.
The result for B8 reads “binds”; that for B9, “binds”; that for B10, “binds”.
Regarding B11, the binding result is “binds”.
Take B12: the binding result is listed as “binds”.
B13: the binding result is on record as “binds”.
The result for B14 reads “binds”; that for B15, “binds”.
As for B16, the entry is “binds”.
B17: the binding result is recorded as “binds”.
The result for B18 reads “binds”.
B19: the binding result is reported as “binds”.
Turning to B20, the binding result is reported as “binds”.
